Source: doi:10.1101/2023.05.30.542953

Molecular target: Lactobacillus helveticus chlorogenic acid esterase (LhCE), wild type (Lactobacillus helveticus)
Assay: crystal structure

stoichiometry N: 2
Substance: Lactobacillus helveticus chlorogenic acid esterase (LhCE), wild type (enzyme)
